Reference: publication PMC7351741, “Structural basis of seamless excision and specific targeting by piggyBac transposase”

What was measured:
[1] = molecular target: piggyBac transposase (PB), full-length, Trichoplusia ni (Trichoplusia ni); assay: SEC-MALS; purified PB at 4 and 2 mg/ml, Superdex 200 Increase 10/300, 20 mM HEPES pH 7.5, 100 mM NaCl, 1 mM TCEP; no DNA
[2] = molecular target: T1, piggyBac transposase (PB) (Trichoplusia ni, UniProt Q283G1 1-594); assay: cryo-EM; 5 mM Ca2+; Zn2+ in CRD; SNHP: 50 mM Tris-Cl pH 8.0, 100 mM NaCl, 5 mM CaCl2, 1 mM TCEP, mixed 1 h at 25 C; STC: 50 mM Tris-Cl pH 8.0, 500 mM NaCl dialyzed to 200 mM NaCl, 10 mM CaCl2; details: protein: recombinant; tags: N-terminal MBP tag removed by TEV; chain copies: 2; hairpin, 35 bp stem, TTAA loop; 2 copies per PB dimer
[3] = molecular target: T1, piggyBac transposase (PB); assay: cryo-EM; 10 mM Ca2+; Zn2+ in CRD; SNHP: 50 mM Tris-Cl pH 8.0, 100 mM NaCl, 5 mM CaCl2, 1 mM TCEP, mixed 1 h at 25 C; STC: 50 mM Tris-Cl pH 8.0, 500 mM NaCl dialyzed to 200 mM NaCl, 10 mM CaCl2; details: protein: recombinant; tags: N-terminal MBP tag removed by TEV; chain copies: 2; four annealed oligos, 2 copies of each; S4 pairs with S5+S6 (break between S5 and S6), 5' CCGG flap on S4; S7 pairs with 3' 11 nt of S6; central target TTAA unpaired in the complex

T1 sequence (Q283G1 entry or part of it): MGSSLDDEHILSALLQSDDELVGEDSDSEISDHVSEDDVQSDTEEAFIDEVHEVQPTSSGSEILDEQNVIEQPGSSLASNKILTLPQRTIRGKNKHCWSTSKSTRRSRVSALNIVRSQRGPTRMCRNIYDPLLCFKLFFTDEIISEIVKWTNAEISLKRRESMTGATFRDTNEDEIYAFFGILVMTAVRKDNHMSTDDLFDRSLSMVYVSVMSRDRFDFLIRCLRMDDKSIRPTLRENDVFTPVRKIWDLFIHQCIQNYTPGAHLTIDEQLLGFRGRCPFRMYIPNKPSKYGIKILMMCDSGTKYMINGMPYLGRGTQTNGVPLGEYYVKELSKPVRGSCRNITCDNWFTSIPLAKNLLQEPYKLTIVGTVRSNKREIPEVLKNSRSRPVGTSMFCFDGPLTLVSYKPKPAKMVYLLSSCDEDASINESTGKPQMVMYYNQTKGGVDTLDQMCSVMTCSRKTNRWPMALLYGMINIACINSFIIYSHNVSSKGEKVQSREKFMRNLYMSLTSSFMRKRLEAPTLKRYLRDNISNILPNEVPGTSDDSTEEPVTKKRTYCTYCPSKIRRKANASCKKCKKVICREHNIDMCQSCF

Molecule: piggyBac transposase (PB), full-length, Trichoplusia ni (enzyme)
- stoichiometry N [1]: 2

B1: LE35hrpn (SNHP LE hairpin DNA) (structured_DNA)
DNA: CATGCGTCAATTTTACGCAGACTATCTTTCTAGGGTTAACCCTAGAAAGATAGTCTGCGTAAAATTGACGCATG
- binding result [2]: binds

B2: LE STC DNA (mixed)
DNA 1: CCGGCCCTAGAAAGATAGTCTGCGTAAAATTGACGCATGCA
DNA 2: TGCATGCGTCAATTTTACGC
DNA 3: AGACTATCTTTCTAGGGTTAAGACTGTGCCGC
DNA 4: GCGGCACAGTC
- binding result [3]: binds
